Test results reported in US20150344570A1 (published 2015).

Molecular target: T1, FcγRIa (human, UniProt P12314 16-292)
T1 construct: extracellular domain; also called FcgRI; 1a
Experiment: SPR (Biacore); He Ab relative to HeCon Ab = 100
In short: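 Antibodies were captured on antigen-peptide chips (amine-coupled to CM5, or biotinylated peptide on SA), then FcγR diluted in HBS-EP+ running buffer was injected as analyte at 25° C. Chips were regenerated with 10 mM glycine-HCl, pH 1.5 between cycles.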

T1 sequence (P12314 16-292): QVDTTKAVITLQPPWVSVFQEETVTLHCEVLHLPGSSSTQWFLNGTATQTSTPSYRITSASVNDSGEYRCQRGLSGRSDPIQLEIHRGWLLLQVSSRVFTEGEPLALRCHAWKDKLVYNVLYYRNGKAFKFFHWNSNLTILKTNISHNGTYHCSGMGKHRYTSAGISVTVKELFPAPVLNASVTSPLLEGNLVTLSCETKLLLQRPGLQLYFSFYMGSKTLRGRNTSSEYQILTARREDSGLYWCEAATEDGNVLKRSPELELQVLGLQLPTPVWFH

Binder	He/Con_1a
GpH7-A5/GpH7-B3 variant H268_02A/GpL16-k0 (antibody, human IgG1, kappa, also called He Ab H268_02A) heavy 1: not shown heavy 2: not shown light: DIVMTQSPLSLPVTPGEPASISCQASESLVHSNRNTYLHWYLQKPGQSPQLLIYKVSNRFSGVPDRFSGSGSGTDFTLKISRVEAEDVGVYYCSQNTHVPPTFGQGTKVEIERTVAAPSVFIFPPSDEQLKSGTASVVCLLNNFYPREAKVQWKVDNALQSGNSQESVTEQDSKDSTYSLSSTLTLSKADYEKHKVYACEVTHQGLSSPVTKSFNRGEC	109 % of control
GpH7-A5/GpH7-B3 variant H268_05P/GpL16-k0 (antibody, human IgG1, kappa, also called He Ab H268_05P) heavy 1: not shown heavy 2: not shown light: DIVMTQSPLSLPVTPGEPASISCQASESLVHSNRNTYLHWYLQKPGQSPQLLIYKVSNRFSGVPDRFSGSGSGTDFTLKISRVEAEDVGVYYCSQNTHVPPTFGQGTKVEIERTVAAPSVFIFPPSDEQLKSGTASVVCLLNNFYPREAKVQWKVDNALQSGNSQESVTEQDSKDSTYSLSSTLTLSKADYEKHKVYACEVTHQGLSSPVTKSFNRGEC	109 % of control
GpH7-A5/GpH7-B3 variant H268_07I/GpL16-k0 (antibody, human IgG1, kappa, also called He Ab H268_07I) heavy 1: not shown heavy 2: not shown light: DIVMTQSPLSLPVTPGEPASISCQASESLVHSNRNTYLHWYLQKPGQSPQLLIYKVSNRFSGVPDRFSGSGSGTDFTLKISRVEAEDVGVYYCSQNTHVPPTFGQGTKVEIERTVAAPSVFIFPPSDEQLKSGTASVVCLLNNFYPREAKVQWKVDNALQSGNSQESVTEQDSKDSTYSLSSTLTLSKADYEKHKVYACEVTHQGLSSPVTKSFNRGEC	108 % of control
GpH7-A5/GpH7-B3 variant H268_08L/GpL16-k0 (antibody, human IgG1, kappa, also called He Ab H268_08L) heavy 1: not shown heavy 2: not shown light: DIVMTQSPLSLPVTPGEPASISCQASESLVHSNRNTYLHWYLQKPGQSPQLLIYKVSNRFSGVPDRFSGSGSGTDFTLKISRVEAEDVGVYYCSQNTHVPPTFGQGTKVEIERTVAAPSVFIFPPSDEQLKSGTASVVCLLNNFYPREAKVQWKVDNALQSGNSQESVTEQDSKDSTYSLSSTLTLSKADYEKHKVYACEVTHQGLSSPVTKSFNRGEC	107 % of control
GpH7-A5/GpH7-B3 variant H268_12R/GpL16-k0 (antibody, human IgG1, kappa, also called He Ab H268_12R) heavy 1: not shown heavy 2: not shown light: DIVMTQSPLSLPVTPGEPASISCQASESLVHSNRNTYLHWYLQKPGQSPQLLIYKVSNRFSGVPDRFSGSGSGTDFTLKISRVEAEDVGVYYCSQNTHVPPTFGQGTKVEIERTVAAPSVFIFPPSDEQLKSGTASVVCLLNNFYPREAKVQWKVDNALQSGNSQESVTEQDSKDSTYSLSSTLTLSKADYEKHKVYACEVTHQGLSSPVTKSFNRGEC	106 % of control
GpH7-A5/GpH7-B3 variant H268_14T/GpL16-k0 (antibody, human IgG1, kappa, also called He Ab H268_14T) heavy 1: not shown heavy 2: not shown light: DIVMTQSPLSLPVTPGEPASISCQASESLVHSNRNTYLHWYLQKPGQSPQLLIYKVSNRFSGVPDRFSGSGSGTDFTLKISRVEAEDVGVYYCSQNTHVPPTFGQGTKVEIERTVAAPSVFIFPPSDEQLKSGTASVVCLLNNFYPREAKVQWKVDNALQSGNSQESVTEQDSKDSTYSLSSTLTLSKADYEKHKVYACEVTHQGLSSPVTKSFNRGEC	112 % of control
GpH7-A5/GpH7-B3 variant H268_20W/GpL16-k0 (antibody, human IgG1, kappa, also called He Ab H268_20W) heavy 1: not shown heavy 2: not shown light: DIVMTQSPLSLPVTPGEPASISCQASESLVHSNRNTYLHWYLQKPGQSPQLLIYKVSNRFSGVPDRFSGSGSGTDFTLKISRVEAEDVGVYYCSQNTHVPPTFGQGTKVEIERTVAAPSVFIFPPSDEQLKSGTASVVCLLNNFYPREAKVQWKVDNALQSGNSQESVTEQDSKDSTYSLSSTLTLSKADYEKHKVYACEVTHQGLSSPVTKSFNRGEC	107 % of control
GpH7-A5/GpH7-B3 variant I332_12R/GpL16-k0 (antibody, human IgG1, kappa, also called He Ab I332_12R) heavy 1: not shown heavy 2: not shown light: DIVMTQSPLSLPVTPGEPASISCQASESLVHSNRNTYLHWYLQKPGQSPQLLIYKVSNRFSGVPDRFSGSGSGTDFTLKISRVEAEDVGVYYCSQNTHVPPTFGQGTKVEIERTVAAPSVFIFPPSDEQLKSGTASVVCLLNNFYPREAKVQWKVDNALQSGNSQESVTEQDSKDSTYSLSSTLTLSKADYEKHKVYACEVTHQGLSSPVTKSFNRGEC	100 % of control
GpH7-A5/GpH7-B3 variant I336_01G/GpL16-k0 (antibody, human IgG1, kappa, also called He Ab I336_01G) heavy 1: not shown heavy 2: not shown light: DIVMTQSPLSLPVTPGEPASISCQASESLVHSNRNTYLHWYLQKPGQSPQLLIYKVSNRFSGVPDRFSGSGSGTDFTLKISRVEAEDVGVYYCSQNTHVPPTFGQGTKVEIERTVAAPSVFIFPPSDEQLKSGTASVVCLLNNFYPREAKVQWKVDNALQSGNSQESVTEQDSKDSTYSLSSTLTLSKADYEKHKVYACEVTHQGLSSPVTKSFNRGEC	109 % of control
GpH7-A5/GpH7-B3 variant I336_02A/GpL16-k0 (antibody, human IgG1, kappa, also called He Ab I336_02A) heavy 1: not shown heavy 2: not shown light: DIVMTQSPLSLPVTPGEPASISCQASESLVHSNRNTYLHWYLQKPGQSPQLLIYKVSNRFSGVPDRFSGSGSGTDFTLKISRVEAEDVGVYYCSQNTHVPPTFGQGTKVEIERTVAAPSVFIFPPSDEQLKSGTASVVCLLNNFYPREAKVQWKVDNALQSGNSQESVTEQDSKDSTYSLSSTLTLSKADYEKHKVYACEVTHQGLSSPVTKSFNRGEC	106 % of control
GpH7-A5/GpH7-B3 variant I336_03V/GpL16-k0 (antibody, human IgG1, kappa, also called He Ab I336_03V) heavy 1: not shown heavy 2: not shown light: DIVMTQSPLSLPVTPGEPASISCQASESLVHSNRNTYLHWYLQKPGQSPQLLIYKVSNRFSGVPDRFSGSGSGTDFTLKISRVEAEDVGVYYCSQNTHVPPTFGQGTKVEIERTVAAPSVFIFPPSDEQLKSGTASVVCLLNNFYPREAKVQWKVDNALQSGNSQESVTEQDSKDSTYSLSSTLTLSKADYEKHKVYACEVTHQGLSSPVTKSFNRGEC	105 % of control
GpH7-A5/GpH7-B3 variant I336_04F/GpL16-k0 (antibody, human IgG1, kappa, also called He Ab I336_04F) heavy 1: not shown heavy 2: not shown light: DIVMTQSPLSLPVTPGEPASISCQASESLVHSNRNTYLHWYLQKPGQSPQLLIYKVSNRFSGVPDRFSGSGSGTDFTLKISRVEAEDVGVYYCSQNTHVPPTFGQGTKVEIERTVAAPSVFIFPPSDEQLKSGTASVVCLLNNFYPREAKVQWKVDNALQSGNSQESVTEQDSKDSTYSLSSTLTLSKADYEKHKVYACEVTHQGLSSPVTKSFNRGEC	106 % of control
GpH7-A5/GpH7-B3 variant I336_06M/GpL16-k0 (antibody, human IgG1, kappa, also called He Ab I336_06M) heavy 1: not shown heavy 2: not shown light: DIVMTQSPLSLPVTPGEPASISCQASESLVHSNRNTYLHWYLQKPGQSPQLLIYKVSNRFSGVPDRFSGSGSGTDFTLKISRVEAEDVGVYYCSQNTHVPPTFGQGTKVEIERTVAAPSVFIFPPSDEQLKSGTASVVCLLNNFYPREAKVQWKVDNALQSGNSQESVTEQDSKDSTYSLSSTLTLSKADYEKHKVYACEVTHQGLSSPVTKSFNRGEC	108 % of control
GpH7-A5/GpH7-B3 variant I336_10E/GpL16-k0 (antibody, human IgG1, kappa, also called He Ab I336_10E) heavy 1: not shown heavy 2: not shown light: DIVMTQSPLSLPVTPGEPASISCQASESLVHSNRNTYLHWYLQKPGQSPQLLIYKVSNRFSGVPDRFSGSGSGTDFTLKISRVEAEDVGVYYCSQNTHVPPTFGQGTKVEIERTVAAPSVFIFPPSDEQLKSGTASVVCLLNNFYPREAKVQWKVDNALQSGNSQESVTEQDSKDSTYSLSSTLTLSKADYEKHKVYACEVTHQGLSSPVTKSFNRGEC	108 % of control
GpH7-A5/GpH7-B3 variant I336_18N/GpL16-k0 (antibody, human IgG1, kappa, also called He Ab I336_18N) heavy 1: not shown heavy 2: not shown light: DIVMTQSPLSLPVTPGEPASISCQASESLVHSNRNTYLHWYLQKPGQSPQLLIYKVSNRFSGVPDRFSGSGSGTDFTLKISRVEAEDVGVYYCSQNTHVPPTFGQGTKVEIERTVAAPSVFIFPPSDEQLKSGTASVVCLLNNFYPREAKVQWKVDNALQSGNSQESVTEQDSKDSTYSLSSTLTLSKADYEKHKVYACEVTHQGLSSPVTKSFNRGEC	108 % of control
GpH7-A5/GpH7-B3 variant K326_12R/GpL16-k0 (antibody, human IgG1, kappa, also called He Ab K326_12R) heavy 1: not shown heavy 2: not shown light: DIVMTQSPLSLPVTPGEPASISCQASESLVHSNRNTYLHWYLQKPGQSPQLLIYKVSNRFSGVPDRFSGSGSGTDFTLKISRVEAEDVGVYYCSQNTHVPPTFGQGTKVEIERTVAAPSVFIFPPSDEQLKSGTASVVCLLNNFYPREAKVQWKVDNALQSGNSQESVTEQDSKDSTYSLSSTLTLSKADYEKHKVYACEVTHQGLSSPVTKSFNRGEC	100 % of control
GpH7-A5/GpH7-B3 variant K326_14T/GpL16-k0 (antibody, human IgG1, kappa, also called He Ab K326_14T) heavy 1: not shown heavy 2: not shown light: DIVMTQSPLSLPVTPGEPASISCQASESLVHSNRNTYLHWYLQKPGQSPQLLIYKVSNRFSGVPDRFSGSGSGTDFTLKISRVEAEDVGVYYCSQNTHVPPTFGQGTKVEIERTVAAPSVFIFPPSDEQLKSGTASVVCLLNNFYPREAKVQWKVDNALQSGNSQESVTEQDSKDSTYSLSSTLTLSKADYEKHKVYACEVTHQGLSSPVTKSFNRGEC	104 % of control
GpH7-A5/GpH7-B3 variant K326_15Y/GpL16-k0 (antibody, human IgG1, kappa, also called He Ab K326_15Y) heavy 1: not shown heavy 2: not shown light: DIVMTQSPLSLPVTPGEPASISCQASESLVHSNRNTYLHWYLQKPGQSPQLLIYKVSNRFSGVPDRFSGSGSGTDFTLKISRVEAEDVGVYYCSQNTHVPPTFGQGTKVEIERTVAAPSVFIFPPSDEQLKSGTASVVCLLNNFYPREAKVQWKVDNALQSGNSQESVTEQDSKDSTYSLSSTLTLSKADYEKHKVYACEVTHQGLSSPVTKSFNRGEC	106 % of control
GpH7-A5/GpH7-B3 variant K326_16H/GpL16-k0 (antibody, human IgG1, kappa, also called He Ab K326_16H) heavy 1: not shown heavy 2: not shown light: DIVMTQSPLSLPVTPGEPASISCQASESLVHSNRNTYLHWYLQKPGQSPQLLIYKVSNRFSGVPDRFSGSGSGTDFTLKISRVEAEDVGVYYCSQNTHVPPTFGQGTKVEIERTVAAPSVFIFPPSDEQLKSGTASVVCLLNNFYPREAKVQWKVDNALQSGNSQESVTEQDSKDSTYSLSSTLTLSKADYEKHKVYACEVTHQGLSSPVTKSFNRGEC	103 % of control
GpH7-A5/GpH7-B3 variant K326_18N/GpL16-k0 (antibody, human IgG1, kappa, also called He Ab K326_18N) heavy 1: not shown heavy 2: not shown light: DIVMTQSPLSLPVTPGEPASISCQASESLVHSNRNTYLHWYLQKPGQSPQLLIYKVSNRFSGVPDRFSGSGSGTDFTLKISRVEAEDVGVYYCSQNTHVPPTFGQGTKVEIERTVAAPSVFIFPPSDEQLKSGTASVVCLLNNFYPREAKVQWKVDNALQSGNSQESVTEQDSKDSTYSLSSTLTLSKADYEKHKVYACEVTHQGLSSPVTKSFNRGEC	105 % of control
GpH7-A5/GpH7-B3 variant K334_06M/GpL16-k0 (antibody, human IgG1, kappa, also called He Ab K334_06M) heavy 1: not shown heavy 2: not shown light: DIVMTQSPLSLPVTPGEPASISCQASESLVHSNRNTYLHWYLQKPGQSPQLLIYKVSNRFSGVPDRFSGSGSGTDFTLKISRVEAEDVGVYYCSQNTHVPPTFGQGTKVEIERTVAAPSVFIFPPSDEQLKSGTASVVCLLNNFYPREAKVQWKVDNALQSGNSQESVTEQDSKDSTYSLSSTLTLSKADYEKHKVYACEVTHQGLSSPVTKSFNRGEC	105 % of control
GpH7-A5/GpH7-B3 variant K334_10E/GpL16-k0 (antibody, human IgG1, kappa, also called He Ab K334_10E) heavy 1: not shown heavy 2: not shown light: DIVMTQSPLSLPVTPGEPASISCQASESLVHSNRNTYLHWYLQKPGQSPQLLIYKVSNRFSGVPDRFSGSGSGTDFTLKISRVEAEDVGVYYCSQNTHVPPTFGQGTKVEIERTVAAPSVFIFPPSDEQLKSGTASVVCLLNNFYPREAKVQWKVDNALQSGNSQESVTEQDSKDSTYSLSSTLTLSKADYEKHKVYACEVTHQGLSSPVTKSFNRGEC	110 % of control
